{"source": "patent US20090208473A1", "about": "(RUTGERS THE STATE UNIVERSITY OF NEW JERSEY, published 2009)", "molecules": {"B1": {"name": "GFP-MG53 C242A mutant (other, mouse, UniProt Q1XH17 1-477, looked up)", "chain": "MSAAPGLLRQELSCPLCLQLFDAPVTAECGHSFCRACLIRVAGEPAADGTVACPCCQAPTRPQALSTNLQLSRLVEGLAQVPQGHCEEHLDPLSIYCEQDRTLVCGVCASLGSHRGHRLLPAAEAQARLKTQLPQQKMQLQEACMRKEKTVAVLEHQLVEVEETVRQFRGAVGEQLGKMRMFLAALESSLDREAERVRGDAGVALRRELSSLNSYLEQLRQMEKVLEEVADKPQTEFLMKFALVTSRLQKILSESPPPARLDIQLPVISDDFKFQVWKKMFRALMPALEELTFDPSSAHPSLVVSSSGRRVECSDQKAPPAGEDTRQFDKAVAVVAQQLLSQGEHYWEVEVGDKPRWALGVMAADASRRGRLHAVPSQGLWLLGLRDGKILEAHVEAKEPRALRTPERPPARIGLYLSFADGVLAFYDASNPDVLTPIFSFHERLPGPVYPIFDVCWHDKGKNAQPLLLVGPEQEQA", "notes": "the plasmid methods describe mouse MG53 cDNA; also called GFP-C242A; not shown: GFP at the N-terminus"}}, "key": {"[1]": {"biological_target": "the molecule itself", "assay": "oligomerization; Western blot without DTT of GFP-MG53 mutants from C2C12 cells", "excerpt": "These mutant constructs were transiently expressed in C2C12 myoblast cells (FIG. 22)."}}}
{"molecule": "MBP-MG53 (recombinant maltose-binding protein fusion protein for MG53)", "values": [{"measurement": "auto-ubiquitination in vitro (high molecular-mass ladders, anti-MBP immunoblot)", "setting": "UbCH5", "value": "High molecular-mass ladders derived from ubiquitination were observed when MBP-MG53 was incubated with Ubc4 or UbCH5 as E2"}, {"measurement": "auto-ubiquitination in vitro (high molecular-mass ladders, anti-MBP immunoblot)", "setting": "Ubc4", "value": "High molecular-mass ladders derived from ubiquitination were observed when MBP-MG53 was incubated with Ubc4 or UbCH5 as E2"}]}
{"molecule": "B1", "values": [{"measurement": "binding result", "setting": "[1]", "value": "no binding"}]}
